{
  "source": "the nanobody polyreactivity screen of Harvey et al. (2022)",
  "data": [
    {"assay": "yeast display, Sf9 membrane polyspecificity reagent, FACS + sequencing; frameworks hold sequencing errors", "how_it_was_run": "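After 36–48 hours of galactose induction, yeast (Saccharomyces cerevisiae BJ5465) displaying a synthetic nanobody library were stained at 4 °C for 1 hour with 10% biotinylated, detergent-solubilized Sf9 membrane reagent. Streptavidin microbeads enriched the stained cells before FACS sorting into low and high (top ~1%) gates on anti-HA and streptavidin fluorescence. Each clone's polyreactivity label reflects its gate of origin.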", "values": [
      {"sequence": "QVQLVESGGCLVQAGGSLRLICAASGLIFTGNAMGWYRQAPGKERELVAAINYSGGSTYYADSVKWRFTISRDNAKNTVSLQLNSLKAEDTAVYYCAAGGKSRSYYWGQGTQVTVSS", "polyreactivity (PSR sort gate)": "high polyreactivity"},
      {"sequence": "QVQLVESGGCLVQAGGSLRLRCAASGFMFGSYAMGWYRQAPGKERELVAAISRRGSSTSYADSVKGRFTISRDNAKNTVYLQMNSLKPEDTAVYFCAPPYLKKWGYYFDGNYWGQGTQVTVSS", "polyreactivity (PSR sort gate)": "high polyreactivity"},
      {"sequence": "QVQLVESGGCLVQAGGSLRLSCAASGFIFSEYAMGWYRQAPGKERELVVAIDVGGGSTYYADSVKGRFTISRDNAKNTVYLQMNSLKPEDTAVYYCAATQYGYWVPYQGFDYWGLGTQVTVSS", "polyreactivity (PSR sort gate)": "low polyreactivity"},
      {"sequence": "QVQLVESGGCLVQAGGSLRLSCAASGFIISSYVMGWYSQEPGKERELVAAITSGTSTYYADSVKGRFTFSRDNAKNTVYLQMNSLKPEDTAVYYCTADSYHTYYYWYDYWGQGTQVTVSS", "polyreactivity (PSR sort gate)": "low polyreactivity"},
      {"sequence": "QVQLVESGGCLVQAGGSLRLSCAASGFTFLDYVMGWYRPAPGKERELVAVITVSGGSTYYADSVKGRFTISRDNAKNTVYLQMTSLKPEDTAVYYCNAYTIEYPFGDSYWYNYDYWGQGTQVTVSS", "polyreactivity (PSR sort gate)": "high polyreactivity"},
      {"sequence": "QVQLVESGGCLVQAGGSLRLSCAASGFTFRWYTMGWYRQAPGKERELVAAITGSGCTTYYADSVKGRFTISRDNAKNTVYLQMNSVKPEDTAVYYCAAQYFPSRGWSKGYDYWGHGTQVTVSS", "polyreactivity (PSR sort gate)": "high polyreactivity"},
      {"sequence": "QVQLVESGGCLVQAGGSLRLSCAASGFTFYAYTMGWYRQAPGKERELVAAITKTGSRTYYADSVKGRFTISRDNAKNTVYLQMNSLKPEDTAVYYCAAASYIRVKGISRYDSWGQGTQVTVSS", "polyreactivity (PSR sort gate)": "high polyreactivity"},
      {"sequence": "QVQLVESGGCLVQAGGSLRLSCAASGLTFADNAMGWYRQAPGKERELVATISYSGGSTYYADSVKGRFTISRDNAKNTVYLQMNSLKPEDTAVYYCAADGNSTGVYLDGGEGFAYDYWGQGSQVTVSS", "polyreactivity (PSR sort gate)": "low polyreactivity"},
      {"sequence": "QVQLVESGGCLVQAGGSLRLSCAASGLTFPKYSMGWYRQAPGKERELVARISYSGASTYYADSVKGRFTISRDNEKNTVYLHMIILKPEDTAVYYCDARIYRVYYVNFAPYYYWGQGTQVTVSS", "polyreactivity (PSR sort gate)": "high polyreactivity"},
      {"sequence": "QVQLVESGGCLVQAGGSLRLSCAASGLTIAYYAMGWYRQAPGKERDLVAAITSSGTSTYYADSVKGRFTISRDNAKNTVYLQMNSLKPEDTAVYYCNKYPYFVYGDYGYWGQGTQVTVSS", "polyreactivity (PSR sort gate)": "high polyreactivity"},
      {"sequence": "QVQLVESGGCLVQAGGSLRLSCAASGRIFGLYAMGWYRQAPGKEREFVAAISSSGSDTYYADSVKGRFTISRDNAKNTVYLQINSLKPDYTAVYYCAKRRLYLCFDYNSSAYEYGYWGQGTQVTVSS", "polyreactivity (PSR sort gate)": "low polyreactivity"},
      {"sequence": "QVQLVESGGCLVQAGGSLRLSCAASGRIFGYYAMGWYRQEPWKERELVAAISYSGGTTYYADSVKGRFTISRDNAKNTVYLQMNSLKPEDTAVYYCAAESYTYYADYGYGYWGQGTQVSVSS", "polyreactivity (PSR sort gate)": "high polyreactivity"},
      {"sequence": "QVQLVESGGCLVQAGGSLRLSCAASGRIFIRYTMGWYRQAPGKERELVAAISKSGGRTYYADSVKGRFTISRDNAKNTDYLQMNSLKPEYTAVYDCNKDTDSQYSWGQGTQVTVSS", "polyreactivity (PSR sort gate)": "high polyreactivity"},
      {"sequence": "QVQLVESGGCLVQAGGSLRLSCAASGRIFNYNAMGWYRQAPGKARELVAVITSGDSTNYADSVKGRFTISRDNAKNNVYLQMNSLKPEDTAVYYCAAEYYSIRYGPHSIEVYGMDYWGQGTQVTVSS", "polyreactivity (PSR sort gate)": "low polyreactivity"},
      {"sequence": "QVQLVESGGCLVQAGGSLRLSCAASGRIFPGYAMVWYRQAPGKERELVAAISASGGSTYYADSVKGRFTISRDNAKNSVYFQIISLKPEDTAVYYCNAVYRLIRFDYWGQGSQVTVSS", "polyreactivity (PSR sort gate)": "high polyreactivity"},
      {"sequence": "QVQLVESGGCLVQAGGSLRLSCAASGRIFRRYAMGWYRQAPGKERELVASITCGGSSTSYADSVKGRFTISRDNAKNTVYLQMNSLKPEDTAVYYCAKGGVFGTYLNEYDYCGQGTQVTVSS", "polyreactivity (PSR sort gate)": "low polyreactivity"},
      {"sequence": "QVQLVESGGCLVQAGGSLRLSCAASGRNFGTYAMGWYRQATGKERELVAASTRGGTTYYADSVKGRFTISRDNAKNTVYLQMNSLTQEDTAVYYCATGPAIRYDYWGQGTQVTVSS", "polyreactivity (PSR sort gate)": "low polyreactivity"},
      {"sequence": "QVQLVESGGCLVQAGGSLRLSCAASGRTFYRYAMGWSRQAPGKERELVATISSRGTSTYYADSVKGRFTISRDNAKNTVYLQMNSLKPEDTAVYYCAVRGYAAGRHGYAYWGQGTQVTVSS", "polyreactivity (PSR sort gate)": "high polyreactivity"},
      {"sequence": "QVQLVESGGCLVQAGGSLRLSCAASGRTIRENVMGWYIQAPGKERELVAAITGNDGTTYYADSVKGRFTISRDNAKNTVNLQMNSLKPEDTAVYYCASERGDSAYRKYDYWGQGTQVTVSS", "polyreactivity (PSR sort gate)": "low polyreactivity"},
      {"sequence": "QVQLVESGGCLVQAGGSLRLSCAASGSIFDSNPKGWYRQAPGKERELVAAITGSGTSTYYADSVKGRFTISRDNAKNTVYLQMNSLKPEDTALNYCAAAPEYLTDHDYWGQGTQVTVSS", "polyreactivity (PSR sort gate)": "low polyreactivity"},
      {"sequence": "QVQLVESGGCLVQAGGSLRLSCAASGSIFGGNAMGWSRQAPGKEREFVAAITVSDGSTYYADSVKGRFTISRDNAKKTVYLQMNSLKPEDTAVYYCAAGGFYYPHYDYWGQGTQVTVSS", "polyreactivity (PSR sort gate)": "low polyreactivity"},
      {"sequence": "QVQLVESGGCLVQAGGSLRLSCAASGSIFQPYAMGWYRQEPGKEREIVAAISQSGTSTYYADSVNGRFTISRDNAKNTVYLQMNSLKPEVTAVYYCAAQCWHLDSQWQLYNYFYWGQGTQVTVSS", "polyreactivity (PSR sort gate)": "high polyreactivity"},
      {"sequence": "QVQLVESGGCLVQAGGSLRLSCAASGSIFYWYAMGWFRQAPGKARELVAAITWSGVSTYYADSVKGRFTISRDNAKNTVDLQMNSLKREDTAVYYCAALVFGYSVFPYSYWGQGTQVTVSS", "polyreactivity (PSR sort gate)": "high polyreactivity"},
      {"sequence": "QVQLVESGGCLVQAGGSLRLSCAASGSIIWYYAMGWYRQAPGKERELVAAISTGGSTYYADSVKGRFTISRDNAKNTVYLQMNSLKPEDTAVYYCAAGAFGQILNYWGQGTQVTVSS", "polyreactivity (PSR sort gate)": "high polyreactivity"},
      {"sequence": "QVQLVESGGCLVQAGGSLRLSCAASGSTFAEYVMGWDRQAPGKERELVAAISSGTSTYYADSVKGRFTISRDNAKNTVYLQMNSLKPEDTAVYYCNADLYHNWYKPEYDYCGQGTQVTVSS", "polyreactivity (PSR sort gate)": "low polyreactivity"},
      {"sequence": "QVQLVESGGCLVQAGGSLRLSCAASGSTFGGNAMGWYRQAPGKERELVAAITIGGRTNYADSVKGRFTISRDNAKNTVYLQMNSLKPEDTAVYYCAKDRDQWQDYWGQGSQVTVSS", "polyreactivity (PSR sort gate)": "low polyreactivity"},
      {"sequence": "QVQLVESGGCLVQAGGSLRLSCAASGSTFIINAMGWYIQAPGKERVLVAANTSTGGTNYADSVKGRFTISRDNAKNTVYLQMNSLKPEATAVYYCAARYYQDGYDYWGQGTQGTVSS", "polyreactivity (PSR sort gate)": "high polyreactivity"},
      {"sequence": "QVQLVESGGCLVQAGGSLRLSCAASGSTFKIYAMGWYRQAPWKERELVAAISWRGGRTYYADSVKGRFTISRDNAKNTVYLQMNSLKPEDTAVYYCDKGTRQGLEFWGQGTQVTVSS", "polyreactivity (PSR sort gate)": "high polyreactivity"},
      {"sequence": "QVQLVESGGCLVQAGGSLRLSCAASGSTFLKYTMGWYRQAPGKERELVAAITASGGRTYYADSVKGRFTISRDNAKITVYLQMNSLKPEDTAVYYCAARGFDRYYWGQGTQVTVSS", "polyreactivity (PSR sort gate)": "high polyreactivity"},
      {"sequence": "QVQLVESGGCLVQAGGSLRLSCAASGSTFLSYAMGWYRQAPGKERELVAAISYSAGSTYYADSVKGRFTISRDNAKNTVYLQMNSLKPEDTAVYYCAAYDYSERRYDYWGQGTQVTVSS", "polyreactivity (PSR sort gate)": "low polyreactivity"},
      {"sequence": "QVQLVESGGCLVQAGGSLRLSCAASGSTFPVYSMGWYRQAPGKERELVAAISYSGGSTNYADSVKGRFTISRDNAKNTVYLQMNSLKPEDTAVYYFAADTESHHEGNYWGQGTQVTVSS", "polyreactivity (PSR sort gate)": "low polyreactivity"},
      {"sequence": "QVQLVESGGCLVQAGGSLRLSCAASGSTFSRYAMGWYRQAPGKERELVAAISWGGNTYYADSVKGRFTISRDNAKNTVYLQMNSLKPEDTAGYYCNADYSSRGANYDYWGQGTQVTVSS", "polyreactivity (PSR sort gate)": "high polyreactivity"},
      {"sequence": "QVQLVESGGCLVQAGGSLRLSCAASGSTFTIYVMGGYRQAPGKERELVAAITWSDGITYYADSVKGRFTISRDNAKNTVYLQMNSLKPEDTAVYYCRDSHPSYRPGTVRYDYWGQGTQVNVSS", "polyreactivity (PSR sort gate)": "low polyreactivity"},
      {"sequence": "QVQLVESGGCLVQAGGSLRLSCAASGSTFTYNAMGGYRQAPGKERELVAGISWRGGRTYYADSVKGRFTISRDTAKNTVYLQMNSLKPEDTAVYYCNARLWGTHYEYARMYYWGQGTQVTVSS", "polyreactivity (PSR sort gate)": "low polyreactivity"},
      {"sequence": "QVQLVESGGCLVQAGGSLRLSCAASGSTFTYNAMGWYRQAPGKERELVAAISRTANANYADSVKGRFTISRDNAKNTVYLQMNSLKPEDTAVYYCADDFLDSKVHVRFGYWGKGTQVTVSS", "polyreactivity (PSR sort gate)": "low polyreactivity"},
      {"sequence": "QVQLVESGGCLVQAGGSLRLSCAASGSTFWWNTMGWYRQAPGKERELVADIRTSGGGTYYADSVKGRFTISRDNAKNTVYLQMNSLKPEDTAVYYCNADPKWEMGSWGQGTQVTVSS", "polyreactivity (PSR sort gate)": "low polyreactivity"},
      {"sequence": "QVQLVESGGCLVQAGGSLRLSCAASGSTINSYAMGCYRQAPGKERELVAAITWIGGNTYYADSVKGRFTISRDNSKNTVYLQMTSLKPEDTAVYYCGADEYFEYYYWGQGTQVTVSS", "polyreactivity (PSR sort gate)": "low polyreactivity"},
      {"sequence": "QVQLVESGGCLVQAGGSLRLSCAASGSTLWGYAMGWYRQAPGKERELVAAITSSGGITYYADSVKGRFTISRDNAKNTVYFQMNSLKPEDTAVYFCAVDYYVVGWTYLYYYWGQGTQVTVSS", "polyreactivity (PSR sort gate)": "low polyreactivity"},
      {"sequence": "QVQLVESGGCLVQAGGSLRLSCAASGYTFLYNAMGWYRQAPGKERELVATNTRGGSTNYADSVKGRFTISRDNAKNTVYLQMYSLKPEDTAVYYCNKEAAPLGFVPSYYGRDYWGHGTQVTVSS", "polyreactivity (PSR sort gate)": "low polyreactivity"},
      {"sequence": "QVQLVESGGCLVQAGGSLRLSCAASRITFRWYAMGWYRQAPGKDRELVAAISRSGASTYYADSVKGRFTISRDNAKNTVYLQMNSLKPEDTAVYYCAKEKTTYYWATYDYWGQGTQVTVSS", "polyreactivity (PSR sort gate)": "high polyreactivity"},
      {"sequence": "QVQLVESGGCLVQAGGSLRLSCAASVRIFQIYAMGWYRQAPGKERELVATISSGTRTYYADSVKGRFTMSRDNAKNTVYLQMNSLKPEDTAVYYCAKTYATRHAYWAGTRYEDDYWGQGTQVTVSS", "polyreactivity (PSR sort gate)": "high polyreactivity"}
    ]}
  ]
}
